Here are results for seven molecules from patent US9522945B2 (OPKO Biologics Ltd., priority 2012, dated 2016).

Read-outs that look alike come from different tables or passages of the source.

On the set-up of data set [1]: species or system rats. Particulars: rat, in vivo.
Source text: Cohorts of 3 animals per group were bled at alternating time points. […] The study was divided into 3 sequential experiments, Experiment #1 (Groups 1-4), Experiment #2 (Groups 5-9) and Experiment #3 (Groups 10-13).
Data set [2] has as its system C57BL/6 mice. Nature of the data set: IP glucose tolerance test (IPGTT). The format is in vivo. Particulars: for effect on glucose levels / glucose tolerance, in words: Experiment 1, 100 nmol/kg IP 15 min prior to glucose IP (1.5 g/kg).
Procedure: Overnight-fasted mice were measured for glucose (pre-dose glucose). Immediately after, they were IP injected with one of the test articles. […] Blood glucose level were measured by tail vein sampling using a handheld glucometer.
The subject of data set [3] is C57BL/6 mice. Put plainly: Acute food intake study. The class given is in vivo.
Procedure: At least one week before injection, mice were weighed and were transferred to a mini cage for acclimatization, (one mouse per cage). During the acclimatization period, they were handled daily and received two injections of vehicle to minimize stress during the study period. The day before the experiment, the mice were fasted. […] After injection, the mice were returned to their home cages (1 mouse per cage), and provided with a pre-weighed amount of chow. Food intake were measured 0, 1, 2, 4, 6, 8, 21, 32 and 44, 55, 68, 80, 93 and 141 h post injection by weighing the chow.
In this study, the acute effect on food intake was measured.
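Wherever CL is given: blood drawn at alternating time points, with three animals in each cohort.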
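Wherever Tmax is given: blood drawn at alternating time points, with three animals in each cohort.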
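Wherever T½ is given: blood drawn at alternating time points, with three animals in each cohort.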
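Wherever Vd is given: blood drawn at alternating time points, with three animals in each cohort.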

B1: OXM-CTP-CTP-CTP: oxyntomodulin with three CTPs on the carboxy terminus, SEQ ID NO: 25 (protein)
chain: MATGSRTSLLLAFGLLCLPWLQEGSAHSQGTFTSDYSKYLDSRRAQDFVQWLMNTKRNRNNIASSSSKAPPPSLPSPSRLPGPSDTPILPQSSSSKAPPPSLPSPSRLPGPSDTPILPQSSSSKAPPPSLPSPSRLPGPSDTPILPQ
modifications: OXM-CTPx3
What is called Tmax is the time from dosing to the highest level. Regarding B1, in data set [1] (sc), the CL was 0.5128 L/h/kg, the Tmax stood at 2.0 h, the T½ was 3.78 h and the Vd was 2.797 L/kg.

B2: CTP-CTP-OXM: oxyntomodulin with two CTPs on the amino terminus, SEQ ID NO: 23 (protein)
chain: MATGSRTSLLLAFGLLCLPWLQEGSASSSSKAPPPSLPSPSRLPGPSDTPILPQSSSSKAPPPSLPSPSRLPGPSDTPILPQHSQGTFTSDYSKYLDSRRAQDFVQWLMNTKRNRNNIARSGCGRGTLGLMGLPFTARFP
modifications: CTPx2-OXM
A word on the AUC(0-t): it is exposure summed from dosing to a finite time, without extrapolation to infinity. A lower AUC(0-t) goes with low exposure. As a reminder, the MRT is a mean duration of stay, worked out from the concentration-time curve. As usually defined, the Cmax is the highest concentration seen after dosing. Take B2: in data set [1], the Bioavailability is recorded as 23.36% and the “bioavailability as calculated from Experiments 1 & 2, change in words” value (from here on “bioavailability as calculated … change in words”) is given as “no significant improvement”. Further, in data set [1] (iv, 230 ug/kg), the “AUC(0-t)” value amounted to 0.4886 µg·h/mL, the “AUC∞” value stood at 0.4904 µg·h/mL, the CL was 0.4333 L/h/kg and the MRT was determined as 0.86 h. In data set [1] (iv, 230 ug/kg), this molecule registered a T½ of 0.27 h, a T½β of 1.20 h and a Vd of 0.7481 L/kg. For the same molecule, in data set [1] (sc, 230 ug/kg), the “AUC(0-t)” value was found to be 0.11415 µg·h/mL, the “AUC∞” value amounted to 0.12985 µg·h/mL, the CL is 1.63655 L/h/kg and the maximum concentration (Cmax) came to 0.02777 µg/mL. Besides, in data set [1] (sc, 230 ug/kg), the MRT was determined as 4.10 h, the Tmax was 1.00 h, the T½ amounted to 2.74 h and the Vd came out at 6.45976 L/kg. Moreover, the “effect on glucose levels / glucose tolerance, in words” value in data set [2] was “minor impact on glucose tolerance”.

B3: OXM-CTP-CTP-CTP-CTP-CTP: oxyntomodulin with five CTPs on the carboxy terminus, SEQ ID NO: 29 (protein)
chain: MATGSRTSLLLAFGLLCLPWLQEGSAHSQGTFTSDYSKYLDSRRAQDFVQWLMNTKRNRNNIASSSSKAPPPSLPSPSRLPGPSDTPILPQSSSSKAPPPSLPSPSRLPGPSDTPILPQSSSSKAPPPSLPSPSRLPGPSDTPILPQSSSSKAPPPSLPSPSRLPGPSDTPILPQSSSSKAPPPSLPSPSRLPGPSDTPILPQ
modifications: OXM-CTPx5
In the case of B3, the “cumulative food inhibition sustained for” value in data set [3] (cumulative food intake, mice) is “at least 141 hrs”. Moreover, in data set [3] (single SC 1700 nmol/kg, male C57BL/6 mice), the “time for which food intake was reduced compared to vehicle” value is recorded as 5 days. The “duration of food intake inhibition, percentage of food intake per time interval” value in data set [3] (time intervals over the experiment (FIG. 6B), single SC, male C57BL/6 mice) was “about 80 hours”. Further, the “pharmacokinetic profile / PK parameters, comparison in words” value (“pharmacokinetic profile / PK parameters” below) in data set [1] is listed as “superior in these parameters compared to other variants”. Moreover, in data set [1] (sc), the CL was determined as 0.3462 L/h/kg, the Tmax was 8 h, the T½ was found to be 9.63 h and the Vd is 4.812 L/kg.

B4: CTP-OXM-CTP-CTP: oxyntomodulin with one CTP on the amino terminus and two on the carboxy terminus, SEQ ID NO: 15 (protein)
chain: MATGSRTSLLLAFGLLCLPWLQEGSASSSSKAPPPSLPSPSRLPGPSDTPILPQHSQGTFTSDYSKYLDSRRAQDFVQWLMNTKRNRNNIASSSSKAPPPSLPSPSRLPGPSDTPILPQSSSSKAPPPSLPSPSRLPGPSDTPILPQ
modifications: CTP-OXM-CTP-CTP
On to B4, for which, in data set [1], the Bioavailability is recorded as 32.43% and the “bioavailability as calculated … change in words” value is on record as “increased”. Moreover, in data set [1] (iv, 230 ug/kg), the exposure AUC(0-t) was 0.9682 µg·h/mL, the “AUC∞” value was found to be 0.9774 µg·h/mL, the CL was found to be 0.2174 L/h/kg and the mean residence time MRT was 0.80 h. Moreover, in data set [1] (iv, 230 ug/kg), the T½ amounted to 0.28 h, the T½β came out at 1.61 h and the Vd was found to be 0.5064 L/kg. For the same molecule, in data set [1] (sc, 230 ug/kg), the “AUC(0-t)” value is 0.31398 µg·h/mL, the “AUC∞” value came out at 0.32086 µg·h/mL, the CL was determined as 0.66228 L/h/kg and the Cmax is 0.03018 µg/mL. Also, in data set [1] (sc, 230 ug/kg), the MRT was found to be 6.62 h, the time to peak (Tmax) came to 6.00 h, the T½ was 4.39 h and the Vd is 4.13925 L/kg.

B5: OXM-CTP-CTP: oxyntomodulin with two CTPs in tandem on the carboxy terminus, SEQ ID NO: 21, expressed in CHO cells (protein)
chain: LEDMATGSRTSLLLAFGLLCLPWLQEGSAHSQGTFTSDYSKYLDSRRAQDFVQWLMNTKRNRNNIASSSSKAPPPSLPSPSRLPGPSDTPILPQSSSSKAPPPSLPSPSRLPGPSDTPILPQ
modifications: OXM-CTP-CTP
In the case of B5, in data set [1], the “pharmacokinetic profile / PK parameters” value was “superior PK parameters as compared to the CTP-OXM-CTP-CTP variant”. Moreover, in data set [1] (sc, 230 ug/kg), the exposure AUC(0-t) is 0.697 µg·h/mL, the “AUC∞” value amounted to 0.7021 µg·h/mL, the CL amounted to 0.3027 L/h/kg and the highest concentration (Cmax) was 0.0509 µg/mL. Further, in data set [1] (sc, 230 ug/kg), the MRT stood at 8.20 h, the time to peak (Tmax) stood at 6.00 h, the T½ worked out at 4.76 h and the Vd turned out to be 2.0789 L/kg.

B6: CTP-OXM-CTP: oxyntomodulin with one CTP on the amino terminus and one on the carboxy terminus, SEQ ID NO: 9 (protein)
chain: MATGSRTSLLLAFGLLCLPWLQEGSASSSSKAPPPSLPSPSRLPGPSDTPILPQHSQGTFTSDYSKYLDSRRAQDFVQWLMNTKRNRNNIASSSSKAPPPSLPSPSRLPGPSDTPILPQ
modifications: CTP-OXM-CTP
For B6, in data set [1], the Bioavailability is 24.44% and the “bioavailability as calculated … change in words” value was “no significant improvement”. Moreover, in data set [1] (iv, 230 ug/kg), the exposure AUC(0-t) turned out to be 0.5927 µg·h/mL, the “AUC∞” value is 0.598 µg·h/mL, the CL amounted to 0.3553 L/h/kg and the MRT was 0.81 h. In data set [1] (iv, 230 ug/kg), this molecule came in with a T½ of 0.25 h, a T½β of 1.57 h and a Vd of 0.8069 L/kg. Further, in data set [1] (sc, 230 ug/kg), the “AUC(0-t)” value turned out to be 0.14487 µg·h/mL, the “AUC∞” value was determined as 0.17082 µg·h/mL, the CL worked out at 1.24397 L/h/kg and the Cmax stood at 0.03111 µg/mL. In data set [1] (sc, 230 ug/kg), the mean residence time (MRT) was determined as 4.73 h, the Tmax amounted to 1.00 h, the T½ was 3.28 h and the Vd amounted to 5.88775 L/kg. Besides, the “effect on glucose levels / glucose tolerance, in words” value in data set [2] is listed as “increased glucose levels”.

B7: OXM-CTP-CTP-CTP-CTP: oxyntomodulin with four CTPs on the carboxy terminus, SEQ ID NO: 27 (protein)
chain: MATGSRTSLLLAFGLLCLPWLQEGSAHSQGTFTSDYSKYLDSRRAQDFVQWLMNTKRNRNNIASSSSKAPPPSLPSPSRLPGPSDTPILPQSSSSKAPPPSLPSPSRLPGPSDTPILPQSSSSKAPPPSLPSPSRLPGPSDTPILPQSSSSKAPPPSLPSPSRLPGPSDTPILPQ
modifications: OXM-CTPx4
Take B7: in data set [3] (single administration, mice), the “inhibition of food intake, comparison in words” value is “did not last as long as OXM-CTPx5 or OXM-CTPx3”. In data set [1], the “pharmacokinetic profile / PK parameters” value is “superior in these parameters compared to other variants”. Moreover, in data set [1] (sc), the CL came out at 0.3554 L/h/kg, the Tmax is 2.0 h and the Vd was 5.3796 L/kg. Further, the “glucose tolerance activity when administered 120 min prior to glucose” value in data set [2] (Experiment 2, 100 nmol/kg IP 120 min prior to glucose) was “induced glucose tolerance activity”.
